Data: the nanobody polyreactivity screen of Harvey et al. (2022)

experiment: yeast display, Sf9 membrane polyspecificity reagent, FACS + sequencing; frameworks hold sequencing errors
How it was run: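 Galactose-induced (36–48 hours) yeast carrying a synthetic nanobody display library were exposed to 10% biotinylated, detergent-solubilized Sf9 membrane reagent at 4 °C for 1 hour. FACS followed streptavidin microbead enrichment, using low and high (top ~1%) gates for expression (anti-HA) and reagent binding (streptavidin). Colony PCR, MiSeq 2 × 250 sequencing and CDR-length filtering followed. Labels for polyreactivity reflect the gate of origin.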

Sequence | polyreactivity (PSR sort gate)
QVQLVESGGGLVQAGGSLRLSCAASGFTFTIYAMGWYRQAPGKERELVATISGRAGRTYYADSVKGRFTISRDNAKNTVYLQITSRKPEDSAVYYCNAGQWRYPGLYYYWGHGTQVTVSS | high polyreactivity
QVQLVESGGGLVQAGGSLRLSCAASGFTFTIYTMGWYRQAPGKERELVAAISRRGGSTYYADSVKGRFTISRDNAKNTVYLQMNSLNPEDTAVYYCAAYVPQGYKLYYWGQGTQVTGSS | high polyreactivity
QVQLVESGGGLVQAGGSLRLSCAASGFTFTKNAMGWYRQAPGKEREMVAAITWRGGSTYYADSVKGRFTISRDNAKNTVYLQMNSLKPEDTAVYYCAADGGSLYDWGQGTQVTVSS | low polyreactivity
QVQLVESGGGLVQAGGSLRLSCAASGFTFTKYAMGWYRQAPVKERELVADITSGTSTYNADSVKGRFTISRDNAKNTVYLQMNSLKPEDTAVYYCAAPLYGRYSYGYWGQGTQVTVSS | high polyreactivity
QVQLVESGGGLVQAGGSLRLSCAASGFTFTPYAMGWYRQAPGKERELVAAISWSDVRTYYADSVKGRFTISRDNAKNTVFLQMNSLKPEDTAVYYCAAEFYFYSWSEYDYWGQGTQVTVSS | high polyreactivity
QVQLVESGGGLVQAGGSLRLSCAASGFTFTRNTMGWYRQAPGKERELVADINWDDGSTNYADSVKGRFTISRDNAKNTVYLQMNSLKPEDTAVYYCAADYYFYYLYPSSNLYNYWGQGTQVTVSS | low polyreactivity
QVQLVESGGGLVQAGGSLRLSCAASGFTFTRYAMGWYRQAPGKERELVAAISSCGDTYYADSVKGRFTISRDNAKNTVYLQMNSLKPEDTAVYYCAADQSSLDYGNDYWGQGTQVTVSS | low polyreactivity
QVQLVESGGGLVQAGGSLRLSCAASGFTFTRYAMGWYRQAPGKERELVAAISWSGGSTYYADSVKGRFTISRDNAKNTVYLQMNSLKPEDTAVYYCAKRGTVRQGGYGYWGQGTLVTVSS | high polyreactivity
QVQLVESGGGLVQAGGSLRLSCAASGFTFTSYAMGWYRQAPGKERELVAAITWDGGRTYYADSVKGRFTISRDNSKNTVYLQMNSLKPEDTAVYYCAKVYNPRQYDYWGQGTQVTVSS | low polyreactivity
QVQLVESGGGLVQAGGSLRLSCAASGFTFTTNAMGWYRQAPGKEREFVAAISRSGGSTDYADSVKGRFTISRDNAKNTVYLQMNSLKPEDTAVYYCNADPRLRQTRDYWGHGTQVTVSS | high polyreactivity
QVQLVESGGGLVQAGGSLRLSCAASGFTFTTYVMGWYRQAPGKERELVAAISRRGTSTRYADSVKGRFTISRDNAKITVYLQMNSLKTEDTAVYFCAADRPYSIVPYDYWGQGTQVTVSS | high polyreactivity
QVQLVESGGGLVQAGGSLRLSCAASGFTFTVYAMGWYRPAPGKERELVAVITSGDGTYYADSVKGRFTISRDNAKNTVYLQMNSLKPEDTAVYYCNARRYSSFRYRFAYDYWGQGTQVTVSS | low polyreactivity
QVQLVESGGGLVQAGGSLRLSCAASGFTFTVYAMGWYRQAPGKERELVAVITAGDGTYYADSVKGRFTISRDNAKNTVYLQMNSLKPEDTAVYYCIALRYSSFRYLFAYDYWGQGTQVTVSS | low polyreactivity
QVQLVESGGGLVQAGGSLRLSCAASGFTFTWYAMGWYRQAPGKERELVAAISSGGGRTYYADSVKGRFTISRDNAKNTVYLQMNSLKPEDTAVYYCNAVAGGVYVDNGYDYWGQGTQVTVSS | high polyreactivity
QVQLVESGGGLVQAGGSLRLSCAASGFTFTWYAMGWYRQAPGKERELVAAISSGGGRTYYADSVKGRFTISRDNAKNTVYLQMNSLKPEDTAVYYCNKVSSFGYYYWGQGTQVTVSS | high polyreactivity
QVQLVESGGGLVQAGGSLRLSCAASGFTFTYYAMGWYRQAPGKERELVAAISWRGTSTFYADSVKGRFTISRDNAKNTVYLQMNSLKPEDTAVYYCATEKWVGYKYWSSRKYDYWGQGTQVTVSS | high polyreactivity
QVQLVESGGGLVQAGGSLRLSCAASGFTFTYYAMGWYRQAPGKERELVATISSGGSTYYADSVKGRFTISRDNAKNTVYLQMNSLKPEDTAVYYCAAERGAITPLVYPPEFDYWGHGTQVTVSS | low polyreactivity
QVQLVESGGGLVQAGGSLRLSCAASGFTFVAYAMGWYRQAPGKERELVAAIRRTDTSTYYADSVKGRFTISRDNAKNTVYLQINSLKPEDTAVYYCAADYWRRTYLGFDYWGQGTQVTVSS | low polyreactivity
QVQLVESGGGLVQAGGSLRLSCAASGFTFVEYAMGWYRQATGKERELVAAITSGGSTYYADSVKGRFTISRDNAKNTVYLQMNSLKPADTAVYYCNAEGVVVAISHFSVQDGYWGQGTQVTVSS | low polyreactivity
QVQLVESGGGLVQAGGSLRLSCAASGFTFVGNAMGSYRQAPGKERELVAAITWSGGRTYYADSVKGRFTISRDNAKNTVYLQMNSLKPEDTAVYYCNKLVERWYGYWGQGTQVTVSS | high polyreactivity
QVQLVESGGGLVQAGGSLRLSCAASGFTFVGNAMGWSRQAPGKERELVATITSGGNTKYADSVKGRFTISRDNAKNTVYLQMHSLKPEDTAVYYCAAAKYNYRRFNYWGQGTQVTVSS | low polyreactivity
QVQLVESGGGLVQAGGSLRLSCAASGFTFVGNAMGWYRQAAGKEWELVADITGSDGSTYYADSVKGRFTISRDNAKNTVYLQINSLKPEDTAVYYCAASPPYKLVWWRRMDYWGQGTQVTVSS | low polyreactivity

Sequence | polyreactivity (PSR sort gate)
QVQLVESGGGLVQAGGSLRLSCAASGFTFVGNTMGWYRQAPGKERELVAAIRGRDGRTYYADSVKGRFTISRDNAKNTVYLQMNSLKPEDTAVFYCNAVGFVWYFDVYSYFTEIKYDYWGQGTQVTVSS | low polyreactivity
QVQLVESGGGLVQAGGSLRLSCAASGFTFVGYAMGWYRQAPGKERELVAAITGRGGTTYYADSVKGRFTISRDNAKNTVYLQMNSLKPEDTAVYYSNADSYITYVQYLYARSWMDYWGQGTQVTVSS | low polyreactivity
QVQLVESGGGLVQAGGSLRLSCAASGFTFVINDMGLYRQAPGKERELVADITSGGDTYYADSVKGRFTISRDNAKNTVYLQMNSLKPEDTAVYYCAADIYPDWIYLLYGYWGQGTQVTVSS | low polyreactivity
QVQLVESGGGLVQAGGSLRLSCAASGFTFVKNAMGWYRQAPGKERELVAAITGSAGRTYYADSVKGRFTISRDNAKNTVYLQMNSLKPEDTAVYYCAAPRFAAPRRIGYDWGQGTQVTVSS | high polyreactivity
QVQLVESGGGLVQAGGSLRLSCAASGFTFVKYAMGWYRQAPGKERELVAAISRSGGRTYYADSVKGRFTISLDNAKNTVYLQMNSLKPEDTAVYYCAADVATTHELDYWGQGTQVTVSS | high polyreactivity
QVQLVESGGGLVQAGGSLRLSCAASGFTFVLYAMGWYRQAPGKERELVATITSSGRTNYADSVKGRFTISRDNAKNTVYLQMNSLKPEDTAVYYCAARGGRRYDYWGQGTQVTVSS | high polyreactivity
QVQLVESGGGLVQAGGSLRLSCAASGFTFVRNVMGWYRQAPGKERELVAAINTGGTTDYADSVKGRFTISRDNAKNTVYLQMNSLKPEDTAVYNCNADYDSQYHYLLRYDYWGQGSQVTVSS | low polyreactivity
QVQLVESGGGLVQAGGSLRLSCAASGFTFVRYAMGWYRQAPGKEREFVASISARGGNTFYADSVKGRFTISRDNAKNTVYLQMNSLKPEDTAVYYCNALTYFKRSEYYWGQGTQVTVSS | high polyreactivity
QVQLVESGGGLVQAGGSLRLSCAASGFTFVRYVMGWYRQAPGKERELVAAISRSGGSTHYADSVKGRFTISRDNAKNTVYLQMNSLKPEDTAVYYCNAYGYRHRGNGYWGQGTQVTVSS | high polyreactivity
QVQLVESGGGLVQAGGSLRLSCAASGFTFVSYAMGWSRQAPGKERELVATITSDGSTNYADSVKGRFTISRDNAKNTVYLQMNSLKPEDTAVYYCAADIHYYPGYLAYDYWGQGTQVTVSS | low polyreactivity
QVQLVESGGGLVQAGGSLRLSCAASGFTFVSYAMGWYRQEPGKEREFVASISARGGNTFYADSVKGRFTISRDNAKNTVYLQMNSLKPEDTAVYYCAKRGPYGTGYGYWGQGTQLTVSS | high polyreactivity
QVQLVESGGGLVQAGGSLRLSCAASGFTFVVNAMGWYRQAPGKERELVATIRSNGGSTYYADSVKGRFTISRDNAKNTVYLQMNSLKPEDTAVYYCAATATDTKYGYWGQGTQVTVSS | low polyreactivity
QVQLVESGGGLVQAGGSLRLSCAASGFTFVYNAMGWYRQAPGKERELVAAISSRGGSTFYADSVKGRFTISRDNAKNTVYLQMNSLKPEDTAVYYCNAVPGWTYDYWGQGTQVTVSS | high polyreactivity
QVQLVESGGGLVQAGGSLRLSCAASGFTFVYYTMGWYRQAPGKERELVAAITSRGGNTYYADSVKGRFTISRDNAKNTVYLQMNSLKPEDTAVYYCAARRITTYYYWGQGTQVTVSS | high polyreactivity
QVQLVESGGGLVQAGGSLRLSCAASGFTFVYYVMGWYRPAPGKERELVAAISWSGGRTYYADSVKGRFTISRDNAKNTVYLQMNSLKPDDTAVYYCAAVRPYYYPLPTVPNLPYDYWGQGTQVTVSS | high polyreactivity
QVQLVESGGGLVQAGGSLRLSCAASGFTFVYYVMGWYRQAPGKERELVAAITYSGGSTYYADSVKGRFTISRDNAKNTVYLHMNSLKPEDTAVYYCAKEVQTYWYHYYYWGQGTQVTVSS | high polyreactivity
QVQLVESGGGLVQAGGSLRLSCAASGFTFWAYAMGWYRPAPGKERELVARISGSGGRTYYADSVKGRFTISRDNAKNTVYLQMNSLKPEDTAVYYCAARRYYYPVGYDYWGEGTQVTVSS | high polyreactivity
QVQLVESGGGLVQAGGSLRLSCAASGFTFWDNAMGWYRQAPGKERELVAAISRRGGTTYYADSVKGRFTISRDNAKNTVYLQMNRLKPEATAVYYCNARRRSVPYRYDFWGQGTQVTVSS | high polyreactivity
QVQLVESGGGLVQAGGSLRLSCAASGFTFWDYAMGWYRQAPGKERELVAAISSRGTRTYYADSVKGRFTISRDNAKNTVYFQMNSLKPEDTAVYYCATAIPDPDYIHNYWGQGTQVTVSS | high polyreactivity
QVQLVESGGGLVQAGGSLRLSCAASGFTFWDYAMGWYRQAPGKERELVAAISSRGTRTYYADSVKGRFTISRDNAKNTVYLQMNSLKPEDTAVYYCATAIPDPDYIHNYWGQGTQVTVSS | high polyreactivity
QVQLVESGGGLVQAGGSLRLSCAASGFTFWDYAMGWYRQAPGKERELVATISVGGGSTYYADSVKGRFTISRDNSKNSVYLQMNSLKPEDTAVYYCAADRSYYLAGYDYWGQGTQVPVSS | low polyreactivity
